Assay results reported in patent publication US12383572B2, “Administration of an anti-activin-a compound to a subject” (AMGEN INC., priority 2013, dated 2025).

Experiments:
[1] = tested on: TOV-21G, BAEC, MRC-5, CCD-Lu, U937 and THP-1 cultures; experiment: Real-time RT-PCR of VEGF, Ang-1 and βA in cell cultures treated with recombinant activin-A; assay type: cell-based; conditions: BAEC
From the text: ID NO: 291), [NT] ID NO: 292), and TaqMan probe [NT] ID NO: 293).

[2] = tested on: TOV-21G, MRC-5, CCD-Lu and THP-1 cell cultures; experiment: VEGF and Ang-1 ELISA of cell culture medium after recombinant activin-A; assay type: cell-based, human; conditions: TOV21G, MRC-5, CCD-Lu and TPH-1 cells treated with activin-A
Experimental: The serum VEGF levels in inh-KO mice were measured by using immunoassay kit (R & D Systems), and the levels of human VEGF and Ang-1 in cell line culture medium were quantified using ELISA kits purchased from Invitrogen (VEGF) and R & D Systems (Ang-1), by following the manufacturers' recommended protocols.

B1: recombinant activin-A: Recombinant activin-A was produced using mammalian expression system (Amgen Inc) (protein, UniProt P08476 311-426, looked up)
Inhibin beta A chain: GLECDGKVNICCKKQFFVSFKDIGWNDWIIAPSGYHANYCEGECPSHIAGTSGSSLSFHSTVINHYRMRGHSPFANLKSCCVPTKLRPMSMLYYDDGQNIIKKDIQNMIVEECGCS
[1]; MRC-5 and CCD-Lu cultures treated with recombinant activin-A
  Ang-1 mRNA (real-time PCR): also of Ang-1 mRNA in BAEC, MRC-5 and CCD-Lu cultures
[1]; TOV21G, MRC-5, CCD-Lu, U937 and THP-1 cultures, recombinant activin-A added
  endogenous activin-A (βA) mRNA expression: markedly upregulated βA expression in all these cells
[1]; TOV-21G, MRC-5 or CCD-Lu, U937 cultures treated with recombinant activin-A
  VEGF transcripts (real-time PCR): marked increases in the levels of VEGF transcripts in all these cultures
[2]
  release of VEGF into the culture medium (ELISA): increased the release of VEGF
